From publication PMC3419264, “ATPase Site Architecture Is Required for Self-Assembly and Remodeling Activity of a Hexameric AAA+ Transcriptional Activator” (Molecular Cell, 2012)

System: T1, Nc1ncnc2c1ncn2[C@@H]1O[C@H](COP(=O)(O)OP(=O)(O)OP(=O)(O)O)[C@@H](O)[C@H]1O
T1 construct: AAA+ domain, residues 1-275; purified as in Joly et al. 2006; hexamer
Assay: steady-state ATPase assay, NADH-coupled regeneration system
Assay type: biochemical, Escherichia coli
Conditions: 37 °C, without σ54, turnover given as Vmax (min^-1), maximal error 10%
Description: steady-state ATPase assay, NADH-coupled regeneration system on PspF1-275

Question: With PspF1-275 (Escherichia coli K-12; E43A) as the substance, how does the Km read?
Answer: Its Km is 750 µM.

Question: What about the kcat of the same substance?
Answer: The kcat was 1.37 ± 0.10 min⁻¹.

Question: What does the source list for PspF1-275 (Escherichia coli K-12; E43D)?
Answer: Km: 250 µM; kcat: 22.26 ± 4.80 min⁻¹

Question: How did the Km turn out when PspF1-275 (Escherichia coli K-12; E43Y) was run?
Answer: The Km was 1,250 μM.

Question: And the kcat?
Answer: Its kcat is 2.49 ± 0.17 min⁻¹.

Question: For “PspF1-275 (Escherichia coli K-12; E118D)”, which Km is on record?
Answer: Its Km is 800 µM.

Question: And the kcat?
Answer: The kcat was 20.23 ± 3.70 min⁻¹.

Question: What does the source list for PspF1-275 (Escherichia coli K-12; L9A)?
Answer: Km: 2,300 μM; kcat: 20.72 ± 2.55 min⁻¹

Question: Which Km does the source give for PspF1-275 (Escherichia coli K-12; L44A) here?
Answer: Its Km is 310 µM.

Question: And the kcat?
Answer: The kcat was 18.16 ± 2.42 min⁻¹.

Question: For “PspF1-275 (Escherichia coli K-12; R122A)”, which Km is on record?
Answer: Its Km is 300 µM.

Question: What about the kcat of the same substance?
Answer: The kcat was 1.26 ± 0.03 min⁻¹.

Question: With “PspF1-275 (Escherichia coli K-12; R162A)” as the substance, how does the Km read?
Answer: The Km was 90 µM.

Question: And the kcat?
Answer: The kcat was 0.18 ± 0.02 min⁻¹.

Question: “PspF1-275 (Escherichia coli K-12; R162K)” was tested. Which Km did it give?
Answer: Its Km is 200 µM.

Question: And the kcat?
Answer: Its kcat is 1.88 ± 0.29 min⁻¹.

Question: How did the Km turn out when “PspF1-275 (Escherichia coli K-12; Y126A)” was run?
Answer: Its Km is 650 µM.

Question: What about the kcat of the same substance?
Answer: The kcat was 11.95 ± 1.77 min⁻¹.
